Laboratory results taken from JP2011147454A (dated 2011).
Where two headings read alike, the source gives them in different places.

Columns and labels:
[1] = target: 未変性の(天然に存在する)ヒトIL-13 (HDLM-2細胞から放出) (human) (UniProt P35225); experiment: cell-based or functional assay
[2] = target: 組換え細菌由来のヒトIL-13 (Peprotech) (human) (UniProt P35225); experiment: cell-based or functional assay
[3] = target: T1, 組換え細菌由来のネズミIL-13 (Peprotech) (murine (mouse), UniProt P20109 21-131, limits assumed); experiment: cell-based or functional assay
T1 sequence (looked up): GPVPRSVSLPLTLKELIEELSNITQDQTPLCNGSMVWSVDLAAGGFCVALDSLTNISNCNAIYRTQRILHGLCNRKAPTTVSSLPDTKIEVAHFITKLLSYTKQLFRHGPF

[4] = target: T1, 組換え細菌由来のネズミIL-13 (Peprotech); experiment: SPR (BIAcore 2000), IgG4 amine-coupled to chip (~500 RU), IL-13 50-0.78 nM in solution
[5] = target: 組換えヒトエオタキシン-1 (R&D Systems) (human) (UniProt P51671); experiment: cell-based or functional assay
[6] = target: ヒト変種IL-13 (Q130R) (バキュロウイルス発現, C末端親和性タグ付き) (human) (UniProt P35225); experiment: cell-based or functional assay
[7] = target: T2, 非ヒト霊長類IL-13 (アカゲザル/カニクイザル; バキュロウイルス発現, C末端親和性タグ付き) (rhesus / cynomolgus monkey); experiment: cell-based or functional assay
T2 chain: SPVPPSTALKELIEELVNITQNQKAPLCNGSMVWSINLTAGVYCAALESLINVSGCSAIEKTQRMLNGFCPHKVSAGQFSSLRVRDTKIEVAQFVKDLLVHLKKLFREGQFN

[8] = target: ヒト変種IL-13 (Q130R) (バキュロウイルス発現, C末端親和性タグ付き) (human) (UniProt P35225); experiment: cell-based or functional assay; remark: listed apart in the source
[9] = target: 未変性の(天然に存在する)ヒトIL-13 (HDLM-2細胞から放出) (human) (UniProt P35225); experiment: cell-based or functional assay; remark: listed apart in the source
[10] = target: 組換え細菌由来のヒトIL-13 (Peprotech) (human) (UniProt P35225); experiment: cell-based or functional assay; remark: listed apart in the source
[11] = target: 野生型ヒトIL-13 (バキュロウイルス発現, C末端親和性タグ付き) (human) (UniProt P35225); experiment: cell-based or functional assay
[12] = target: 組換え細菌由来のヒトIL-13 (Peprotech) (human) (UniProt P35225); experiment: SPR (BIAcore 2000), IgG4 amine-coupled to chip (~500 RU), IL-13 50-0.78 nM in solution

Chain of UniProt P51671 (P51671 24-97 limits assumed): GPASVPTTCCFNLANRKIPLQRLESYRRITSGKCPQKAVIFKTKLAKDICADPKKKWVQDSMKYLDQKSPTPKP

## JES10-5A2 (ラットIgG1, Biosource) (antibody)
[1]
  IC50, HDLM-2細胞増殖アッセイ: 10.7 nM
[2]
  IC50, NHLFエオタキシン放出アッセイ: 0.623 nM
  IC50, TF-1細胞増殖アッセイ: 1.02 nM

## BAK502G9 IgG4 (antibody)
[1]
  IC50, HDLM-2細胞増殖アッセイ: 4.6 nM

## B-B13 (マウスIgG1, Euroclone) (antibody)
[1]
  IC50, HDLM-2細胞増殖アッセイ: 16.7 nM
[2]
  IC50, NHLFエオタキシン放出アッセイ: 0.219 nM
  IC50, TF-1細胞増殖アッセイ: 0.471 nM

B1: BAK209B11 scFv (scFv, V domains shown)
VH: VQLQESGGGGLVQPGGSLRLSCAASGFTFSSYGMSWVRQAPGKGLEWVSSISASGDSTFYADSVKGRFTISRDNNKNMVFLQVNSLRADDTAVYFCAKDWSQWLVGDAFDVWGRGTTVTVSS
VL: DIQLTQSPSTLSASVGDRVTITCRASQSVSLWVAWYQQRPGKAPKLLIYDGSTLQSGVPARFSGSGSGTEFTLTISSLQPDDFATYYCQQYKTFSTFGQGTKVEIK
[3]
  IC50, TF-1細胞増殖アッセイ: 185 nM

B2: BAK209B11 IgG4 (antibody, V domains shown)
VH: VQLQESGGGGLVQPGGSLRLSCAASGFTFSSYGMSWVRQAPGKGLEWVSSISASGDSTFYADSVKGRFTISRDNNKNMVFLQVNSLRADDTAVYFCAKDWSQWLVGDAFDVWGRGTTVTVSS
VL: DIQLTQSPSTLSASVGDRVTITCRASQSVSLWVAWYQQRPGKAPKLLIYDGSTLQSGVPARFSGSGSGTEFTLTISSLQPDDFATYYCQQYKTFSTFGQGTKVEIKR
[4]
  Kd: 5.1 nM
[3]
  IC50, B9細胞増殖アッセイ: 0.776 nM

B3: CAT-213 (antibody, from another filing, V domains shown)
VH: QVQLVQSGGGVVQPGRSLRLSCAASGFTFSSYGMHWVRQAPGKGLEWVAVISYDGSIKHYADSVKGRFTISRDNSKNTLYLQMNSLRTDDTAVYYCAGDTDYGDIDPWGQGTMVTVSS
VL: DIQMTQSPSSVSASVGDRVTITCRASQDISSWLAWYQQKPGKAPKLLIYAASSLQSGVPSRFSGSGSGTDFTLTISSLQPEDFATYYCQQASSFPSITFGQGTRLEIKR
[5]
  好酸球形態変化 (%ブランク形態変化), 100 nM CAT-213: 101%

B4: BAK502G9 IgG4 (antibody, V domains shown)
VH: QVQLVQSGAEVKKPGASVKVSCKASGYTFTNYGLSWVRQAPGQGLEWMGWISANNGDTNYGQEFQGRVTMTTDTSTSTAYMELRSLRSDDTAVYYCARDSSSSWARWFFDLWGRGTLVTVSS
VL: SYVLTQPPSVSVAPGKTARITCGGNIIGSKLVHWYQQKPGQAPVLVIYDDGDRPSGIPERFSGSNSGNTATLTISRVEAGDEADYYCQVWDTGSDPVVFGGGTKLTVL
[6]
  IC50, TF-1細胞増殖アッセイ: 1.9 nM
[7]
  IC50, TF-1細胞増殖アッセイ: 2 nM

B5: BAK1167F2 IgG4 (antibody, V domains shown)
VH: QVQLVQSGAEVKKPGASVKVSCKASGYTFEQTGVSWVRQAPGQGLEWMGWISANNGDTNYGQEFQGRVTMTTDTSTSTAYMELRSLRSDDTAVYYCARDSSSSWARWFFDLWGRGTLVTVSS
VL: SYVLTQPPSVSVAPGKTARITCGGNIIGSKLVHWYQQKPGQAPVLVIYDDGDRPSGIPERFSGSNSGNTATLTISRVEAGDEADYYCQVWDTGSDPVVFGGGTKLTVL
[8]
  IC50, TF-1細胞増殖アッセイ: 1.1 nM
[9]
  IC50, HDLM-2細胞増殖アッセイ: 1.1 nM
[10]
  IC50, HUVEC VCAM-1アップレギュレーション: 0.055 nM
  IC50, NHLFエオタキシン放出アッセイ: 0.069 nM
[11]
  IC50, TF-1細胞増殖アッセイ: 1 nM
[7]
  IC50, TF-1細胞増殖アッセイ: 1.3 nM
[12]
  Kd: 0.136 nM

B6: BAK1183H4 IgG4 (antibody, from another filing, V domains shown)
VH: QVQLVQSGAEVKKPGASVKVSCKASGYTFTNYGLSWVRQAPGQGLEWMGWINYDGGNTQYGQEFQGRVTMTTDTSTSTAYMELRSLRSDDTAVYYCARDSSSSWARWFFDLWGRGTLVTVSS
VL: SYVLTQPPSVSVAPGKTARITCGGNIIGSKLVHWYQQKPGQAPVLVIYDDGDRPSGIPERFSGSNSGNTATLTISRVEAGDEADYYCQVWDTGSDPVVFGGGTKLTVL
[8]
  IC50, TF-1細胞増殖アッセイ: 1 nM
[9]
  IC50, HDLM-2細胞増殖アッセイ: 3.5 nM
[10]
  IC50, HUVEC VCAM-1アップレギュレーション: 0.058 nM
  IC50, NHLFエオタキシン放出アッセイ: 0.118 nM
[11]
  IC50, TF-1細胞増殖アッセイ: 0.9 nM
[12]
  Kd: 0.081 nM

B7: BAK1183H4 IgG4 (antibody, V domains shown)
VH: QVQLVQSGAEVKKPGASVKVSCKASGYTFTNYGLSWVRQAPGQGLEWMGWINYDGGNTQYGQEFQGRVTMTTDTSTSTAYMELRSLRSDDTAVYYCARDSSSSWARWFFDLWGRGTLVTVSS
VL: SYVLTQPPSVSVAPGKTARIPCGGNIIGSKLVHWYQQKPGQAPVLVIYDDGDRPSGIPERFSGSNSGNTATLTISRVEAGDEADYYCQVWDTGSDPVVFGGGTKLTVL
[7]
  IC50, TF-1細胞増殖アッセイ: 1.6 nM
